Assay results: US20230331869A1

Assays:
Assay in all cases: fibrinogen 15mer peptide array
FIBA 218-232 = molecular target: T1, FIBA 218-232
T1 sequence (peptide): FKSQLQKVPPEWKAL

FIBA 507-521 = molecular target: T2, FIBA 507-521
T2 sequence (peptide): FPGFFSPMLGEFVSE

FIBA 514 528 = molecular target: T3, FIBA 514 528
T3 sequence (peptide): FSPMLGEFVSETESR

FIBA 602-616 = molecular target: T4, FIBA 602-616
T4 sequence (peptide): RGHAKSRPVRGIHTS

FIBG 123-137 = molecular target: T5, FIBG 123-137
T5 sequence (peptide): NLKEKVAQLEAQCQE

FIBG 15-29 = molecular target: T6, FIBG 15-29
T6 sequence (peptide): FGSYCPTTCGIADFL

FIBG 202-216 = molecular target: T7, FIBG 202-216
T7 sequence (peptide): DFKKNWIQYKEGFGH

FIBG 206-220 = molecular target: T8, FIBG 206-220
T8 sequence (peptide): NWIQYKEGFGHLSPT

FIBG 214-228 = molecular target: T9, FIBG 214-228
T9 sequence (peptide): FGHLSPTGTTEFWLG

FIBG 287-301 = molecular target: T10, FIBG 287-301
T10 sequence (peptide): GDAFDGFDFGDDPSD

FIBG 303-317 = molecular target: T11, FIBG 303-317
T11 sequence (peptide): FFTSHNGMQFSTWDN

FIBG 335-349 = molecular target: T12, FIBG 335-349
T12 sequence (peptide): WMNKCHAGHLNGVYY

FIBG 7-21 = molecular target: T13, FIBG 7-21
T13 sequence (peptide): NCCILDERFGSYCPT

[1] = substrate: T14, FIBB 107-121
T14 sequence (peptide): VSQTSSSSFQYMYLL

[2] = substrate: T15, FIBB 139-153
T15 sequence (peptide): VNEYSSELEKHQLYI

[3] = substrate: T16, FIBB 191-205
T16 sequence (peptide): EYCRTPCTVSCNIPV

[4] = substrate: T17, FIBB 235-249
T17 sequence (peptide): PYRVYCDMNTENGGW

[5] = substrate: T18, FIBB 258-262
T18 sequence (peptide): SVDFGRKWDPYKQGF

[6] = substrate: T19, FIBB 283-297
T19 sequence (peptide): KNYCGLPGEYWLGND

[7] = substrate: T20, FIBB 315-329
T20 sequence (peptide): EDWKGDKVKAHYGGF

[8] = substrate: T21, FIBB 319-333
T21 sequence (peptide): GDKVKAHYGGFTVQN

[9] = substrate: T22, FIBB 391-405
T22 sequence (peptide): RKQCSKEDGGGWWYN

[10] = substrate: T23, FIBB 395-409
T23 sequence (peptide): SKEDGGGWWYNRCHA

[11] = substrate: T24, FIBB 407-421
T24 sequence (peptide): CHAANPNGRYYWGGQ

[12] = substrate: T25, FIBB 415-429
T25 sequence (peptide): RYYWGGQYTWDMAKH

[13] = substrate: T26, FIBB 427-431
T26 sequence (peptide): AKHGTDDGVVWMNWK

[14] = substrate: T27, FIBB 63-77
T27 sequence (peptide): GGCLHADPDLGVLCP

[15] = substrate: T28, FIBB 71-85
T28 sequence (peptide): DLGVLCPTGCQLQEA

B1: antibody G or 45-C1C3 antibody (antibody, V domains shown)
VH: EVQLVESGGGAVQPGRSLRLSCAASGVSFSNIGMHWVRQAPGKGLEWVALISSDGRHTHYADSVKGRFTISRDNSENTLYLQINGLRADDTAVYYCAKGLDTRARYMGKFYTFDYWGQGTLVTVSS
VL: DIQLTQSPSSLSASVGDRVTITCRASQNIGVNLNWYQQRPGKGPKLLVSSTFSLQSGVPSRFSASGAGTNFTLTISSLQPEDYVTYYCQQSYSSPFTFGPGTKVDIK
- signal intensity (RLU) (FIBA 218-232): 6880 RLU
- signal intensity (RLU) (FIBA 507-521): 3370 RLU
- signal intensity (RLU) (FIBA 514 528): 5030 RLU
- signal intensity (RLU) (FIBA 602-616): 2570 RLU
- signal intensity (RLU) (FIBG 123-137): 3130 RLU
- signal intensity (RLU) (FIBG 15-29): 3150 RLU
- signal intensity (RLU) (FIBG 202-216): 9080 RLU
- signal intensity (RLU) (FIBG 206-220): 6580 RLU
- signal intensity (RLU) (FIBG 214-228): 8260 RLU
- signal intensity (RLU) (FIBG 287-301): 11400 RLU
- signal intensity (RLU) (FIBG 303-317): 6750 RLU
- signal intensity (RLU) (FIBG 335-349): 50000 RLU
- signal intensity (RLU) (FIBG 7-21): 5760 RLU
- signal intensity (RLU) [1]: 2930 RLU
- signal intensity (RLU) [2]: 6790 RLU
- signal intensity (RLU) [3]: 2790 RLU
- signal intensity (RLU) [4]: 3610 RLU
- signal intensity (RLU) [5]: 6910 RLU
- signal intensity (RLU) [6]: 8780 RLU
- signal intensity (RLU) [7]: 5070 RLU
- signal intensity (RLU) [8]: 2670 RLU
- signal intensity (RLU) [9]: 2980 RLU
- signal intensity (RLU) [10]: 3470 RLU
- signal intensity (RLU) [11]: 9200 RLU
- signal intensity (RLU) [12]: 12900 RLU
- signal intensity (RLU) [13]: 2640 RLU
- signal intensity (RLU) [14]: 2780 RLU
- signal intensity (RLU) [15]: 2550 RLU
